Source: US20060193821, “Aptamers to the human IL-12 cytokine family and their use as autoimmune disease therapeutics” (published 2006)

Each binder was assayed against T1, IL-23 (human, p19/p40 heterodimer) (Homo sapiens, UniProt Q9NPF7;P29460 SEQ:20-189,SEQ:23-328) (assay: filter; DPBS Ca Mg). Details: tags: R&D Systems, carrier free.
Method: The selection progress was monitored using the dot blot sandwich filter binding assay as described in Example 1A. The 5′-³²P-labeled pool RNA was refolded at 90° C. for 3 minutes and cooled to room temperature for 10 minutes. Next, pool RNA (trace concentration) was incubated with h-IL-23 DPBS plus 0.1 mg/mL tRNA for 30 minutes at room temperature and then applied to a nitrocellulose and nylon filter sandwich in a dot blot apparatus (Schleicher and Schuell). The percentage of pool RNA bound to the nitrocellulose was calculated and monitored approximately every 3 rounds with a single point screen (+/−250 nM h-IL-23). Pool KD measurements were measured using a titration of h-IL-23 protein (R&D, Minneapolis, Minn.) and the dot blot apparatus as described above.
The rRmY h-IL-23 selection was enriched for h-IL-23 binding vs. the naïve pool after 4 rounds of selection (data not shown). The selection stringency was increased and the selection was continued for 8 more rounds. […] The rGmH selection was enriched over the naïve pool binding at Round 10. […] FIG. 7 is a binding curve of rRmY and rGmH pool selection binding to h-IL-23. The pools were cloned using TOPO TA cloning kit (Invitrogen, Carlsbad, Calif.) and individual sequences were generated and tested for binding. A single point binding screen was initially performed on all crude rRmY clone transcriptions using a 1:200 dilution, +/−200 nM IL-23, plus 0.1 mg/mL competitor tRNA. […] The 10 point screen was performed using zero to 480 nM IL-23 in 3 fold serial dilutions. Binding curves were generated (KaleidaGraph v. 3.51, Synergy Software) and KDs were estimated by fitting the data to the equation: fraction RNA bound=amplitude[h-IL-23]/KD+[h-IL-23]). […] There was one group of 6 duplicate sequences and 4 pairs of 2 duplicate sequences out of the rRmY clones generated. […] Clones were also tested from 48 crude rGmH clone transcriptions at a 1:200 dilution and 0.1 mg/mL tRNA was used as competitor.

T1 sequence (Q9NPF7 20-189, chain 1 of 2): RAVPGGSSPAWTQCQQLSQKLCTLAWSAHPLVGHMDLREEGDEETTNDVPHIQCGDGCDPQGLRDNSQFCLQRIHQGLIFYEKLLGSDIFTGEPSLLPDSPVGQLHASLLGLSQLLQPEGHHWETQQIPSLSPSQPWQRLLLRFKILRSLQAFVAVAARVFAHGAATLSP
T1 sequence (P29460 23-328, chain 2 of 2): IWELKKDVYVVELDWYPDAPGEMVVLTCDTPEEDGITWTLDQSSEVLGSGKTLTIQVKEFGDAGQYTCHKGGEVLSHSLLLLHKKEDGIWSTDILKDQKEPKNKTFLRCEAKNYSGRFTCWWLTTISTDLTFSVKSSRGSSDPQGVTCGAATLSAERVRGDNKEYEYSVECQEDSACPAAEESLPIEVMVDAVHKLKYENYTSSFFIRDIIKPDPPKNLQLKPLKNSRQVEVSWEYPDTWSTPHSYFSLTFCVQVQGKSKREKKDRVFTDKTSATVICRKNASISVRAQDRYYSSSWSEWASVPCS

| Binder | Kd |
| --- | --- |
| rRmY clone SEQ 73 (ssRNA, 2'-OMe C,U) RNA: GGGAGAGGAGAGAACGUUCUACAAAUGAGAGCAGGCCGAAAAGGAGUCGCUCGCUGUCGAUCGAUCGAUCGAUG | 101 nM |
| rRmY clone SEQ 87 (ssRNA, 2'-OMe C,U) RNA: AGGAGAGGAGAGAACGUUCUACUAGAAGCAGGCUCGAAUACAAUUCGGAAGUCGCUGUCGAUCGAUCGAUCGAUG | 122 nM |
| rRmY clone SEQ 78 (ssRNA, 2'-OMe C,U) RNA: GGGAGAGGAGAGAACGUUCUACAAAAGAGAGCAGGCCGAAAAGGAGUCGCUCGCUGUCGAUCGAUCGAUCGAUG | 124 nM |
| rRmY clone SEQ 71 (ssRNA, 2'-OMe C,U) RNA: GGGAGAGGAGAGAACGUUCUACAAAUGAGAGCAGGCCGAAGAGGAGUCGCUCGCUGUCGAUCGAUCGAUCGAUG | 124 nM |
| rRmY clone SEQ 82 (ssRNA, 2'-OMe C,U) RNA: GGGAGAGGAGAGAACGUUCUACGAGAGGCAAGAGAGAGUCGCAUAAAAAAGACGCUGUCGAUCGAUCGAUCGAUG | 199 nM |
| rRmY clone SEQ 72 (ssRNA, 2'-OMe C,U) RNA: GGGAGAGGAGAGAACGUUCUACAAAUGAGAGCAGGCCGAAAAGGAGUCGCUCGCUGUCGAUCGAUCGAUCGAUG | 211 nM |
| rRmY clone SEQ 86 (ssRNA, 2'-OMe C,U) RNA: GGGAGAGGAGAGAACGUUCUACUAAUGCAGGCUCAGUUACUACUGGAAGUCGCUGUCGAUCGAUCGAUCGAUG | 219 nM |
| rRmY clone SEQ 74 (ssRNA, 2'-OMe C,U) RNA: GGGAGAGGAGAGAACGUUCUACGGUAAAGCAGGCUGACUGAAAGGUUGAAGUCGCUGUCGAUCGAUCGAUCGAUG | 257 nM |
| rRmY clone SEQ 77 (ssRNA, 2'-OMe C,U) RNA: GGGAGAGGAGAGAACGUUCUACAACAAAGCAGGCUCAUAGUAAUAUGGAAGUCGCUGUCGAUCGAUCGAUCGAUG | 259 nM |
| rRmY clone SEQ 81 (ssRNA, 2'-OMe C,U) RNA: GGGAGAGGAGAGAACGUUCUACGAAUGAGAGCAGGCCGAAAAGGAGUCGCUCGCUGUCGAUCGAUCGAUCGAUG | 303 nM |
| rRmY clone SEQ 75 (ssRNA, 2'-OMe C,U) RNA: GGGAGAGGAGAGAACGUUCUACAGGUUAAGAGCAGGCUCAGGAAUGGAAGUCGCUGUCGAUCGAUCGAUCGAUG | 479 nM |
| rRmY clone SEQ 84 (ssRNA, 2'-OMe C,U) RNA: GGGAGAGGAGAGAACGUUCUACGGAAAAAGAUAUGAAAGAAAGGAUUAAGAGACGCUGUCGAUCGAUCGAUCGAUG | 602 nM |
| rRmY clone SEQ 79 (ssRNA, 2'-OMe C,U) RNA: GGGAGAGGAGAGAACGUUCUACAAAAGGCAGGCUCAGGGGAUCACUGGAAGUCGCUGUCGAUCGAUCGAUCGAUG | 807 nM |

The binders below were run against T1, IL-23 (human, p19/p40 heterodimer) (assay: filter; -tRNA). Details: tags: R&D Systems, carrier free.
Method: These molecules were gel purified and assayed for IL-23 binding using the dot blot assay as described above and compared to each other and to the parent molecule, ARC979. An 8 point IL-23 titration (0 nM to 300 nM, 3 fold serial dilutions) was used in the binding assay.

| Binder | Kd |
| --- | --- |
| ACAGGCAAGUAAUUGGGGAGUGCGGGCGGGGUGU (mixed, deoxy A,G; 2'-OMe C,U; PS 12-13 [PS between 12-13; 2'-OMe C,U at 2,6,10,13,14,21,23,27,32,34; deoxy A,G at all other positions]) [ARC1157] | 69 nM |
| ACAGGCAAGUAAUUGGGGAGUGCGGGCGGGGUGU (mixed, deoxy A,G; 2'-OMe C,U; PS 33-34 [PS linkage 33-34; 2'-OMe C,U at 2,6,10,13,14,21,23,27,32,34; all A,G 2'-deoxy]) [ARC1169] | 74 nM |
| ACAGGCAAGUAAUUGGGGAGUGCGGGCGGGGUGU (mixed, deoxy A,G; 2'-OMe C,U; PS 14-15 [PS between 14-15; 2'-OMe C,U at 2,6,10,13,14,21,23,27,32,34; deoxy A,G at all other positions]) [ARC1159] | 77 nM |
| ACAGGCAAGUAAUUGGGGAGUGCGGGCGGGGUGU (mixed, deoxy A,G; 2'-OMe C,U; PS 22-23 [PS between 22-23; 2'-OMe C,U at 2,6,10,13,14,21,23,27,32,34; deoxy A,G at all other positions]) [ARC1164] | 79 nM |
| ACAGGCAAGUAAUUGGGGAGUGCGGGCGGGGUGU (mixed, deoxy A,G; 2'-OMe C,U; PS 32-33 [PS linkage 32-33; 2'-OMe C,U at 2,6,10,13,14,21,23,27,32,34; all A,G 2'-deoxy]) [ARC1168] | 82 nM |

The binders below were run against T1, IL-23 (human, p19/p40 heterodimer) (assay: filter; 100 nM IL-23). Details: tags: R&D Systems, carrier free.

| Binder | binding signal |
| --- | --- |
| B10.min1 (ssRNA, 2'-F C,U) RNA: GGAGCGAAUCAUACACAAGAAGUGCUUCAUGCGGCAAACUGCAUGACGUCGAAUAGAUAUGCUCC | 33.9 +/- ratio |
| GGAGUCUGAGUACUCAGCGUCCGUAAGGGAUAUGCUCCGCCAGACUCC (ssRNA, 2'-F C,U) [A10.min2] | 6 +/- ratio |
| GGAAUCAUACCGAGAGGUAUUACCCCGAAAGGGGACCAUUCC (ssRNA, 2'-F C,U) [Type 2.1] | 5.2 +/- ratio |
| C10.1 (ssRNA, 2'-F C,U) RNA: GGACACAAGAGAUGUAUUCAGGCGGUCCGCAUUGAUGUCAGUUAUGCGUAGCUCCGCC | 4.4 +/- ratio |
| GGAAUCAUACACAAGAGUGUAUUACCCCCAACCCAGGGGGACCAUUCC (ssRNA, 2'-F C,U) [D9.1] | 3.9 +/- ratio |
| C11.1 (ssRNA, 2'-F C,U) RNA: GGAAGAAUGGUCGGAAUCUCUGGCGCCACGCUGAGUAUAGACGGAAGCUCCGCCAGA | 3.5 +/- ratio |
| A10.min1 (ssRNA, 2'-F C,U) RNA: GGAGAUCAUACACAAGAAGUUUUUUGUGCUCUGAGUACUCAGCGUCCGUAAGGGAUCUCC | 3.1 +/- ratio |
| GGAGGCGCCACGCUGAGUAUAGACGGAAGCUCCGCCUCC (ssRNA, 2'-F C,U) [C11.2] | 2.3 +/- ratio |
| GGCAUACACGAGAGUGCUGUCGAAAGACUCGGCCGAGAGGCUAUGCC (ssRNA, 2'-F C,U) [Type 1.1] | 0.9 +/- ratio |
| GGAUCAUACACAAGAAGUGCUUCACGAAAGUGACGUCGAAUAGAUCC (ssRNA, 2'-F C,U) [B10.min3] | 0.8 +/- ratio |
| GGAGUCUGAGUACUCAGCGUCCCGAGAGGGGAUAUGCUCCGCCAGACUCC (ssRNA, 2'-F C,U) [A10.min4] | 0.7 +/- ratio |
| GGCAUACGCGAGAGCGCUGGCGAAAGCCUCGGCCGAGAGGCUAUGCC (ssRNA, 2'-F C,U) [Type 1.2] | 0.7 +/- ratio |
| GGUUAAAUCUCAUCGUCCCCGUUUGGGGAU (ssRNA, 2'-F C,U) [F11.min1] | 0.6 +/- ratio |
| GGAUACCCGAGAGGGCUGGCGAAAGCCUCGGCGAGAGCUAUCC (ssRNA, 2'-F C,U) [Type 1.3] | 0.6 +/- ratio |
